For the data set, the system named is His6-aptamers (peptide aptamers of FIGS. 4A and 4B, purified).

Turning to Cdk2/Cyclin E kinase, the “phosphorylation of Histone H1 by Cdk2/Cyclin E kinase” value is “All tested aptamers were able to inhibit phosphorylation of Histone H1 by Cdk2/Cyclin E kinase”.
